Source: PMC7117317 (Veterinary Microbiology, 2019)

B1: Nb5 (VHH)
VHH: QVQLQESGGGSVQSGGSLRLSCAASTYTYSSGCMGWFRQAPGKEREGVATIDSDGSTTYADSVKGRFTISQDNAKNTLQLQMNSLKPEDTAMYYCAADDFWICSIIGRPGVADFRYWGQGTQVTVSS
B2: Nb100 (VHH)
VHH: QVQLQESGGGSVQSGGSLRLSCAASGYRRYCMAWFRQAPGKEREGVASIRSDGSTRYADSVKGRFSISQDNAENTLYLQMNSLKPEDTAMYYCAADSSAGCYSVHNSLLARSTYNYWGQGTQVTVSS
B3: Nb20 (VHH)
VHH: QVQLQESGGGSVQSGGSLRLSCRAVDGSGACMGWFRQAPGKEREGVAVIARDGSTNYAHSVRGRFTISQDNAKNTLYLQMNGLKPDDTAMYYCAAGPRFRSCSTSPSFYTSWGQGTQVTVSS
B4: Nb60 (VHH)
VHH: QVQLQESGGGSVQPGGSLRLSCAASGFAVSSVAMSWVRQAPGKGLEWVSSINRYGFRVYADSVTGRFTISRDNAKNTLYLQLNSLKTEDTAMYYCSKDDDANWLNGRRGQGTQVTVSS
B5: Nb45 (VHH)
VHH: QVQLQESGGGSVQSGGSLRLSCARSGYARRIYSMAWFRQAPGKEREGVAILNDDGNPTYAGSVKGRFTISRDNAKNTLYLQMNSLKPEDTAMYYCAADLTAQSYTRDRLLTSAYNVWGQGTQVTVSS
B6: Nb54 (VHH)
VHH: QVQLQESGGGSVQSGGSLRLSCAASTYTYNNYCMGWFRQAPGKEREGVASIERFGHTIFADSVKGRFTISRDNTKNTLYLQMNSLKPEDTAMYYCATERPSAYCSDSFTFNYWGQGTQVTVSS
B7: Nb114 (VHH)
VHH: QVQLQESGGGSVQSGGSLRLSCAASGYTYQTYSMGWFRQAPGKEREGVAAIDDDGSTMYADSVKGRFTISQDSAKNTLYLQMNSLKPEDTAVYYCAASGFRGLLEFMRNIWVDYWGQGTQVTVSS

Molecular target: BVDV NS5B-His recombinant protein (Bovine viral diarrhea virus 1, strain …, UniProt P19711)
Assay: ELISA

Chain of BVDV NS5B-His recombinant protein (P19711 whole entry, looked up): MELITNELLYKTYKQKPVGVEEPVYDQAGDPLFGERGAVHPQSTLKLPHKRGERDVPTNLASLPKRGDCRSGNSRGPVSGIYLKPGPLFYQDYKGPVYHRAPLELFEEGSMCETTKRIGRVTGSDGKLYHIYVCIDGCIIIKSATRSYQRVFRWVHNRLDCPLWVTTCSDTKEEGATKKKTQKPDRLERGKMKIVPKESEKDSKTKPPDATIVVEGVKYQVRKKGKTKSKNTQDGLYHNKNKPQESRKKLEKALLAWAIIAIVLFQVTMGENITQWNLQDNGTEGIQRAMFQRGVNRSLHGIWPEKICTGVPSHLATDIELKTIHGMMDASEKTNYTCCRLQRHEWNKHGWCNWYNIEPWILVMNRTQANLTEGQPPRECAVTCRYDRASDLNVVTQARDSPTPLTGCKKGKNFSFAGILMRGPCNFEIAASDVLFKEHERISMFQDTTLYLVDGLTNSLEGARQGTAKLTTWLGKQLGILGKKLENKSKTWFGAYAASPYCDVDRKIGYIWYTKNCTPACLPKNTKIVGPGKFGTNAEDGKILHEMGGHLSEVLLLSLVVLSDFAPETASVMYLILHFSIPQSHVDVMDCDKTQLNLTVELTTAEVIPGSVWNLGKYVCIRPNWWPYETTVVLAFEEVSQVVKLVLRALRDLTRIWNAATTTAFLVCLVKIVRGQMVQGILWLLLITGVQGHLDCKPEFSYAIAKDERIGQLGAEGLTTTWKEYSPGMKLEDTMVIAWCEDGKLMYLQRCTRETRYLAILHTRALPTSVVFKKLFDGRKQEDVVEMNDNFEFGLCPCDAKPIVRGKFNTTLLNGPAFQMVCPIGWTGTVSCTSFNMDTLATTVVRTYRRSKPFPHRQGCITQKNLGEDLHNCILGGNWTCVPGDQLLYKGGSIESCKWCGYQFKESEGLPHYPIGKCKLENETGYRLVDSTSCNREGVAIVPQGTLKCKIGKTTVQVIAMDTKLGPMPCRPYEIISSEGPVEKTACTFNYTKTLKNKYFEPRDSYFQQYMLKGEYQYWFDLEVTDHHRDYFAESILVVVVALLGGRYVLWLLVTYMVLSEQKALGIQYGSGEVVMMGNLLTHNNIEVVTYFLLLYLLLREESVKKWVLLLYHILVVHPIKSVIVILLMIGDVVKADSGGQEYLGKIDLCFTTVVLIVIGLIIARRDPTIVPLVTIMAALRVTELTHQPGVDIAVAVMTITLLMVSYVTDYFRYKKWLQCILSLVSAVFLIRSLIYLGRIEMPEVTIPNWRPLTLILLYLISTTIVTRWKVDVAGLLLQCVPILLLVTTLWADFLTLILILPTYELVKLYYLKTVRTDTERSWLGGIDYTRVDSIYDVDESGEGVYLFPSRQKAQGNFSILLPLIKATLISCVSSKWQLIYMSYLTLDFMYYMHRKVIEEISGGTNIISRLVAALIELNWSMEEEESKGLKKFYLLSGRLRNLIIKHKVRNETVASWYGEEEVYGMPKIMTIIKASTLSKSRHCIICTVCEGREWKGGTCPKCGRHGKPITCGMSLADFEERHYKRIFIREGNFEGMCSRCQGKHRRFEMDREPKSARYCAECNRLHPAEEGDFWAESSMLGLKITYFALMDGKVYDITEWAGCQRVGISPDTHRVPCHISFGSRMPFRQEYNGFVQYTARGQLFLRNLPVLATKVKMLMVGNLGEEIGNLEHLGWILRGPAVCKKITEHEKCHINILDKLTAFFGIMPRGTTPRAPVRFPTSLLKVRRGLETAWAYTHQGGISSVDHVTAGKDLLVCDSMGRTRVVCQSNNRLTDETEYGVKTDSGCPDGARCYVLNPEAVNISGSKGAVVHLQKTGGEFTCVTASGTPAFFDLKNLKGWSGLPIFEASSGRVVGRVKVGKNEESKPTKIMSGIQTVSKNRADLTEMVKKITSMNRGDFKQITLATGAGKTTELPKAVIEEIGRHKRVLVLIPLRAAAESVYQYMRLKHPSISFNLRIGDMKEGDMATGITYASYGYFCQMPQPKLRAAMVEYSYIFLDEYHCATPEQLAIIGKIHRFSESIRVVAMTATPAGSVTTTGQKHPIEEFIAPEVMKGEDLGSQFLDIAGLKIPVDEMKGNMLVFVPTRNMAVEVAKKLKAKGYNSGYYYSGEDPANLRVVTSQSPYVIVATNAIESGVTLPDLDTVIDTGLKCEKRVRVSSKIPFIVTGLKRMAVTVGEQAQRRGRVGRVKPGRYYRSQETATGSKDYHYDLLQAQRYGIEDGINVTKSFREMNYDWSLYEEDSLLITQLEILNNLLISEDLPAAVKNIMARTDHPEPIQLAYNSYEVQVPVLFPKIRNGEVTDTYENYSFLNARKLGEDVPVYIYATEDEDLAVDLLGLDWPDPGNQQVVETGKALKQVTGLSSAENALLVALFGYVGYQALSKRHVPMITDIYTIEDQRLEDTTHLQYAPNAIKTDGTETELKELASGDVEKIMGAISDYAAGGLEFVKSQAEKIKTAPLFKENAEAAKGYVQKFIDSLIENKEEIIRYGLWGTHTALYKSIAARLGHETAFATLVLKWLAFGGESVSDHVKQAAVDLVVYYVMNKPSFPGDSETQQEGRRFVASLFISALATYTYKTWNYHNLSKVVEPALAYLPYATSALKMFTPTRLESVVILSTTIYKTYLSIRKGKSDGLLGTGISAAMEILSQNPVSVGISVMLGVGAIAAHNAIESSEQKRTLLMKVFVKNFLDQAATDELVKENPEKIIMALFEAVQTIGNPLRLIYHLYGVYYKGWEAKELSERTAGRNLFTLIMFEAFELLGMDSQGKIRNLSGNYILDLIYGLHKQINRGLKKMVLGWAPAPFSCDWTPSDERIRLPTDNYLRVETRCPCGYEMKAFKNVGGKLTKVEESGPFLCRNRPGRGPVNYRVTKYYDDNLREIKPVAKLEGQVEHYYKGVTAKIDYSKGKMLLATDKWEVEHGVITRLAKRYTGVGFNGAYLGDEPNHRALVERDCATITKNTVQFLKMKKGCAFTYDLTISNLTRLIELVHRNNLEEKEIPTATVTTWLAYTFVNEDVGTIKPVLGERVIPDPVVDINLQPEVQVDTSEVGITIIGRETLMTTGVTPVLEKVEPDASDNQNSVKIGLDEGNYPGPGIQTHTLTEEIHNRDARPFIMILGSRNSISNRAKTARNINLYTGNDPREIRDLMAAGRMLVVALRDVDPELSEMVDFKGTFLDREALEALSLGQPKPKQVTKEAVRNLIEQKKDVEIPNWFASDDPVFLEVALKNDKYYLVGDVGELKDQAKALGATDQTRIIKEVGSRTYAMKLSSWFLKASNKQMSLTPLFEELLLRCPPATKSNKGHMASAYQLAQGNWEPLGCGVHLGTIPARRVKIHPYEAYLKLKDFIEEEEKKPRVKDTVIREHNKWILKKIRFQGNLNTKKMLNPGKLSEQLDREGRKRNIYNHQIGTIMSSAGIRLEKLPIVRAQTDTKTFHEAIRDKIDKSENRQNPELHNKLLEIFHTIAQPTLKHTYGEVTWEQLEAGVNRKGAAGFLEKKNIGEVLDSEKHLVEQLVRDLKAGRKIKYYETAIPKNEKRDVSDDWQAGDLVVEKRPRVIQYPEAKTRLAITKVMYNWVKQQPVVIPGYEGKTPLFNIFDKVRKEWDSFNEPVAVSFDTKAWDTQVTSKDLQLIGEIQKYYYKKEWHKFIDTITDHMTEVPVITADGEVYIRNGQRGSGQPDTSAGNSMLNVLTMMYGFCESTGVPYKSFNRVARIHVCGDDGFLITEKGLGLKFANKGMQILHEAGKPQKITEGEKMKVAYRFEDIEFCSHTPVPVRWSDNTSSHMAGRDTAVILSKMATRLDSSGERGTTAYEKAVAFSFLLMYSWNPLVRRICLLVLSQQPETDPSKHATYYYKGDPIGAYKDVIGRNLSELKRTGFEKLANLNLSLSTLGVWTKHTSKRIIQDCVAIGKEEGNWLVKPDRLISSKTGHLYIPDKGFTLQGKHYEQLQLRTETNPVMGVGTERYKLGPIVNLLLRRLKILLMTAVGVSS

Row | Binder | binding result
1 | B1 | binds
2 | B2 | binds
3 | B3 | binds
4 | B4 | binds
5 | B5 | binds
6 | B6 | binds
7 | B7 | binds
